Data set [1] addresses T1, hsTRPA1 (Homo sapiens, UniProt O75762).
T1 construct: HEK cells transfected with either full-length hsTRPA1 or channels containing deletions; porcine teschovirus-1 2A self-cleaving peptide (p2A) linking the channel to dTomato in a bicistronic vector (cleaved yes); host or cells: HEK 293T cells expressing human alpha-v beta-3 integrin and stably expressing GCaMP6f
Briefly: Agonist activation of hsTRPA1-expressing HEK cells (GCaMP6f). Format: cell-based. The note with it: NMM 100 μM; AITC 33 μM; dTom control cells for comparison.

Data set [2] relates to mouse primary cortical neurons. Put plainly: GCaMP6f calcium imaging of primary cortical neurons under ultrasound or AITC. The format is cell-based.
Data set [3] has as its target T1, hsTRPA1. Put plainly: Effect of agents on ultrasound-evoked GCaMP6f response of hsTRPA1-expressing HEK cells. The format is cell-based.
Data set [4] concerns the target T1, hsTRPA1. The format is cell-based.
In data set [5] the target is human-TRPV1 (Homo sapiens, UniProt Q8NER1). Format: cell-based. The note with it: capsaicin 3 μM.
For data set [6], the target named is mouse-Piezol (Mus musculus, UniProt E2JF22). The format is cell-based. The following applies: yoda-1 10 μM.
Data set [7] concerns HEK cells. Format: cell-based, human. The note with it: 0.1% , positive control. From the text: FIGS. 6A-6J: Ultrasound stimulation at 2.5 MPa is safe as assessed by intracellular uptake of propidium iodide. FIG. 6A: Image showing bright field (BF) image for GCaMP6f-HEK cells, and the corresponding GFP channel (FIG. 6B) and propidium iodide channel (FIG. 6C) before ultrasound stimulation. Multiple trials with ultrasound stimulation at 2.5 MPa 100 ms had no effect on the intracellular levels of propidium iodide (FIG. 6D) n=3 stims. FIG. 6E: Image showing HEK cells used for the positive control, including GFP channel (FIG. 6F) and propidium iodide channel before treatment (FIG. 6G). […] Time course for the propidium iodide signal for an ultrasound stimulated cell highlighted in FIG. 6A, shown in FIG. 6I, and for a cell treated with […] highlighted in FIG. 6E, shown in FIG. 6J. Scale bar, 20 μm.
To facilitate rapid screening of ultrasound-triggered cellular responses, an optical imaging setup was aligned with a custom designed transducer. In particular, a single-crystal 6.91 MHz lithium niobate transducer (FIG. 1A) that lacks hysteresis and generates minimal heat as it converts electrical input into mechanical energy was designed. Such a transducer reduced ultrasound-triggered temperature changes. […]

The target of data set [8] is T1, hsTRPA1. Put plainly: Effect of agents on AITC-triggered GCaMP6f response of hsTRPA1-expressing HEK cells. The format is cell-based. The note with it: AITC 33 μM; after incubation with agent; versus vehicle.
The subject of data set [9] is rat primary neurons. Put plainly: Whole-cell patch clamp (voltage and current clamp) of primary neurons under ultrasound. The format is cell-based.
Data set [10] concerns Human Embryonic Kidney 293T (HEK) cells. Put plainly: Ultrasound-evoked GCaMP6f calcium response of HEK cells transfected with candidate channels (screen and TRPA1 variants). The following applies: for Response to ultrasound stimulation (cells activated, GCaMP6f): transfected GCaMP6f HEK cells, 6.91 MHz, screen at 100 msecs, 1.5 MPa. Format: cell-based.
Data set [11] concerns excitable HEK cells. Briefly: Patch-clamp electrophysiology of excitable HEK cells expressing TRPA1 channel polypeptides under ultrasound. Format: cell-based, human. (The patch-clamp technique gives a direct electrical read-out from membranes.)
Data set [12] in a line: Rotarod motor learning task. The note with it: cortical expression; 5 days. In general terms: In the rotarod test animals must keep their balance on a rotating rod.
For data set [13], the system named is layer V motor cortical neurons. Briefly: c-fos expression in cortical neurons after ultrasound in vivo. More on the design: species or system mouse.
Data set [14] has as its system Human Embryonic Kidney 293T (HEK) cells. Put plainly: AITC (chemical agonist) GCaMP6f response of HEK cells transfected with hsTRPA1 variants. Format: cell-based. The following applies: AITC 33 μM.
The mark [15] stands for this setting: control neurons without hsTRPA1.
The mark [16] stands for this setting: hsTRPA1-expressing primary neurons, ultrasound.

Substitutions are numbered along the chain they refer to. Names and notes keep the numbering of the source. “Also recorded” adds a separate entry of the source. Where two headings read alike, the source gives them in different places. Where no end group is shown, it is not given here.

mouse-Piezol, sequence (E2JF22 whole entry): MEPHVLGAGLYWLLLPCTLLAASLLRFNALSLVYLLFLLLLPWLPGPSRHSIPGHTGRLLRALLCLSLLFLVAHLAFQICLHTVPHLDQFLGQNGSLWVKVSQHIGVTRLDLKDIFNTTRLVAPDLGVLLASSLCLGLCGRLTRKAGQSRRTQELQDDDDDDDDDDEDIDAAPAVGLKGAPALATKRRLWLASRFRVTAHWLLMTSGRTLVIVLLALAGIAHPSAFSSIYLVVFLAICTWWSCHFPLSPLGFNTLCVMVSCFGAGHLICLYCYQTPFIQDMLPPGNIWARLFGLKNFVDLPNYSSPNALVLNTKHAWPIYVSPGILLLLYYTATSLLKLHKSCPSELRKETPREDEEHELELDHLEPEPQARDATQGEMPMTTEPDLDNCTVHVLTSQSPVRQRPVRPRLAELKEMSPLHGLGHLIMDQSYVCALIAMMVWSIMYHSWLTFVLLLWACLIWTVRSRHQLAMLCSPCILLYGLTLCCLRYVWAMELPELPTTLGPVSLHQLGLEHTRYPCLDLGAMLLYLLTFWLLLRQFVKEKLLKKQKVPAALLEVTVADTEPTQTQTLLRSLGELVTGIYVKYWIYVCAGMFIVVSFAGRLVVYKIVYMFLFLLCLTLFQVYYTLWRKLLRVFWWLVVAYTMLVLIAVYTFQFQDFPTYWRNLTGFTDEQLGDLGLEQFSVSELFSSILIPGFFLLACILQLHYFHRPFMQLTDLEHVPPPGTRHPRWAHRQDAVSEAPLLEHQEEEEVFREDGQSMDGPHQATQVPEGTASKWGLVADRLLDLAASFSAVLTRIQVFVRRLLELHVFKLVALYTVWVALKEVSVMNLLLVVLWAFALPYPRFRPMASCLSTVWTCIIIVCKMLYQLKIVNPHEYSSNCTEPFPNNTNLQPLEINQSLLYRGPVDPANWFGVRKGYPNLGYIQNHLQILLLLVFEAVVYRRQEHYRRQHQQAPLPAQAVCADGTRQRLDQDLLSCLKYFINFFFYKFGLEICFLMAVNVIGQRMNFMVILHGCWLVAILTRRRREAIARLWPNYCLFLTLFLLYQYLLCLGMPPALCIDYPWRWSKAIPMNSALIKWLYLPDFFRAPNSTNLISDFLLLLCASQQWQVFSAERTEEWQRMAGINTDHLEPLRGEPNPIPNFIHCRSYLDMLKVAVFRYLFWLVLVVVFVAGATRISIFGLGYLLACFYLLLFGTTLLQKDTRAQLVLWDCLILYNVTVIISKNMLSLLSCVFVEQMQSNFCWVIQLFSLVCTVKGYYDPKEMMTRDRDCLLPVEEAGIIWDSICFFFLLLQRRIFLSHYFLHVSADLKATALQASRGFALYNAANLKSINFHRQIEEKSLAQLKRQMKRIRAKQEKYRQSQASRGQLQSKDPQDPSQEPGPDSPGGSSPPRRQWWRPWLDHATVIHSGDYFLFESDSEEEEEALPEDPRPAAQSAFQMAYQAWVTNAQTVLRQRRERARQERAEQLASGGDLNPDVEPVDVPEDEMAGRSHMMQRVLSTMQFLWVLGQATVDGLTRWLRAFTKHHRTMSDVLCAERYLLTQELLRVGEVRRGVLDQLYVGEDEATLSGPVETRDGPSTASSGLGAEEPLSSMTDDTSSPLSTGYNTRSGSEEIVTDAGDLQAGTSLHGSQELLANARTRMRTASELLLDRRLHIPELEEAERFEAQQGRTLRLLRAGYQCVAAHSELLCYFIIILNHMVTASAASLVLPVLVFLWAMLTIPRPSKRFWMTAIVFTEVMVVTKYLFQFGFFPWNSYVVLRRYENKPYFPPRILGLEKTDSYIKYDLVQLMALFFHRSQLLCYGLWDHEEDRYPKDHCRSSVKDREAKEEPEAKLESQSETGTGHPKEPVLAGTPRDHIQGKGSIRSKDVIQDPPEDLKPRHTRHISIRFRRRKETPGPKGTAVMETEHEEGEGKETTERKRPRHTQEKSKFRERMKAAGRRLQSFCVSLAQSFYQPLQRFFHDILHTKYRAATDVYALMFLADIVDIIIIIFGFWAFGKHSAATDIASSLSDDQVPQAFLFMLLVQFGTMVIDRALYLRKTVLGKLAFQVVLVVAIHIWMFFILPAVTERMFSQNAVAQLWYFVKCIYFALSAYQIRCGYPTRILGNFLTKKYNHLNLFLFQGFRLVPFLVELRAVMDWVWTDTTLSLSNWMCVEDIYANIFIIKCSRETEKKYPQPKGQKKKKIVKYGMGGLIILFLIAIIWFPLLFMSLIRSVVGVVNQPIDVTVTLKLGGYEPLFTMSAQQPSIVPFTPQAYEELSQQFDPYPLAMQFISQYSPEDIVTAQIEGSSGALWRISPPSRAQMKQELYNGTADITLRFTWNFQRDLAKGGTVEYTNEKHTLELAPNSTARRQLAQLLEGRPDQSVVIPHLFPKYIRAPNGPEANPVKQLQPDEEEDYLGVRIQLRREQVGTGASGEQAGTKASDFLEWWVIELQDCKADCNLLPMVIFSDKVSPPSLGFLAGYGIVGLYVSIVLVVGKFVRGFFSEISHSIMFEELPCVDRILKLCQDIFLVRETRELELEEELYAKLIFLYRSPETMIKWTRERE
human-TRPV1, sequence (Q8NER1 whole entry): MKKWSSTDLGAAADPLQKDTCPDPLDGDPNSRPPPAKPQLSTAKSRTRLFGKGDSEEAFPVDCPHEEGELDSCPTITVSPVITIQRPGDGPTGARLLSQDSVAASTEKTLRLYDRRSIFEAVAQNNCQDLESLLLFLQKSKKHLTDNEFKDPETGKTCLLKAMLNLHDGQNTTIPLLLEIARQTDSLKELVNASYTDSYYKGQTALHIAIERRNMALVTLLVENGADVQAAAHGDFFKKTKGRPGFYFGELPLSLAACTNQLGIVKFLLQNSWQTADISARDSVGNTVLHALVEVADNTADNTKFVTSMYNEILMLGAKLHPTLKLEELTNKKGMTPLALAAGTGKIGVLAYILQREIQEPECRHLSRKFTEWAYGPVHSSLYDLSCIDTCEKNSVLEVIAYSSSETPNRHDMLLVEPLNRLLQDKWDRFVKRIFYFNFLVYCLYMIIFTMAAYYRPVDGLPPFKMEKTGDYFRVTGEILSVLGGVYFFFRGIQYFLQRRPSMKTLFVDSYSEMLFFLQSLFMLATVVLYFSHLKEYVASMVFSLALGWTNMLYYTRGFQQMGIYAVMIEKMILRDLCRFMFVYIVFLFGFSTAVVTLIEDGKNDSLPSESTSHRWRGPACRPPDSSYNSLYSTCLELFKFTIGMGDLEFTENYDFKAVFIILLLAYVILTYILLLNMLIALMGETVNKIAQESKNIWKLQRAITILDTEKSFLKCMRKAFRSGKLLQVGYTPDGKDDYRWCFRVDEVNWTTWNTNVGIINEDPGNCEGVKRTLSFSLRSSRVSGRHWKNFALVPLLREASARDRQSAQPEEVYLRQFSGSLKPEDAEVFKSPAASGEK

Consider `C=CCN=C=S` [AITC, allyl isothiocyanate], for which the “Activation of TRPA1-expressing HEK cells by agonist (GCaMP6f)” value in data set [1] is listed as “specifically activated TRPA1-expressing HEK cells”. In data set [2] (setting [15]), the “Response of Cre-only control neurons to agonist” value is reported as “did not respond”.
In the case of `CC(C)c1ccc(NC(=O)Cn2cnc3c2c(=O)n(C)c(=O)n3C)cc1` [HC-030331], the “Effect on ultrasound responses of hsTRPA1-expressing HEK cells (GCaMP6f peak amplitude)” value in data set [3] is listed as “inhibited”. For the same molecule, the “Effect on ultrasound responses of hsTRPA1-expressing neurons (GCaMP6f)” value in [2] (A784168 2 μM, BAPTA 30 μM, versus vehicle) is recorded as “significantly attenuated”. Moreover, the “Effect on ultrasound-evoked activity of control (Cre) neurons” value in data set [2] (setting [15]) is recorded as “without affecting”. Moreover, the “Effect on ultrasound-triggered membrane events (mean peak amplitude)” value in data set [4] was “attenuated”.
In the case of `CN1C(=O)C=CC1=O` [NMM, N-methylmaleimide], the “Activation of TRPA1-expressing HEK cells by agonist (GCaMP6f)” value in [1] is given as “specifically activated TRPA1-expressing HEK cells”.
Regarding `COc1cc(CNC(=O)CCCC/C=C/C(C)C)ccc1O` [capsaicin], the “Response of HEK cells expressing human TRPV1 to compound” value in [5] is listed as “respond”.
Take `Clc1cccc(Cl)c1CSc1nnc(-c2cnccn2)s1` [yoda-1]: in data set [6], the “Response of HEK cells expressing mouse Piezo1 to compound” value is recorded as “respond”.
The same measure, in the same setting: as for “GsMTx-4-4: GsMTx-4, applied to Piezo1- and TRPV1-expressing HEK cells (GCLEFWWKCNPNDDKCCRPKLKCSKLFKLCNFSF; ends and bridges not checked; cysteine pairing not given here; UniProt Q7YT39 47-80, looked up)”, the entry is “not”.
As to Triton-X, the Intracellular propidium iodide result in [7] is reported as “significant increase of intracellular propidium iodide”.
For the molecule methyl-beta-cyclodextrin [MCD], the “Effect on ultrasound responses of hsTRPA1-expressing HEK cells (GCaMP6f peak amplitude)” value in [3] (agent added 45 minutes before, HC-030031 40 μM, MCD 5 mM, nocodazole 5 μM, latrunculin A 1 μM, paclitaxel 600 nM, versus vehicle) is listed as “attenuated hsTRPA1 responses to ultrasound”. The “Effect on AITC-triggered responses of hsTRPA1-expressing HEK cells” value in data set [8] is reported as “did not affect the response to AITC”.

B1: hsTRPA1: human TRPA1 channel protein Clone 63 (non-mutated/WT), SEQ ID NO: 4; RefSeq XP_016869435.1 (protein, listed as Homo sapiens)
chain: MKRSLRKMWRPGEKKEPQGVVYEDVPDDTEDFKESLKVVFEGSAYGLQNFNKQKKLKRCDDMDTFFLHYAAAEGQIELMEKITRDSSLEVLHEMDDYGNTPLHCAVEKNQIESVKFLLSRGANPNLRNFNMMAPLHIAVQGMNNEVMKVLLEHRTIDVNLEGENGNTAVIIACTTNNSEALQILLKKGAKPCKSNKWGCFPIHQAAFSGSKECMEIILRFGEEHGYSRQLHINFMNNGKATPLHLAVQNGDLEMIKMCLDNGAQIDPVEKGRCTAIHFAATQGATEIVKLMISSYSGSVDIVNTTDGCHETMLHRASLFDHHELADYLISVGADINKIDSEGRSPLILATASASWNIVNLLLSKGAQVDIKDNFGRNFLHLTVQQPYGLKNLRPEFMQMQQIKELVMDEDNDGCTPLHYACRQGGPGSVNNLLGFNVSIHSKSKDKKSPLHFAASYGRINTCQRLLQDISDTRLLNEGDLHGMTPLHLAAKNGHDKVVQLLLKKGALFLSDHNGWTALHHASMGGYTQTMKVILDTNLKCTDRLDEDGNTALHFAAREGHAKAVALLLSHNADIVLNKQQASFLHLALHNKRKEVVLTIIRSKRWDECLKIFSHNSPGNKCPITEMIEYLPECMKVLLDFCMLHSTEDKSCRDYYIEYNFKYLQCPLEFTKKTPTQDVIYEPLTALNAMVQNNRIELLNHPVCKEYLLMKWLAYGFRAHMMNLGSYCLGLIPMTILVVNIKPGMAFNSTGIINETSDHSEILDTTNSYLIKTCMILVFLSSIFGYCKEAGQIFQQKRNYFMDISNVLEWIIYTTGIIFVLPLFVEIPAHLQWQCGAIAVYFYWMNFLLYLQRFENCGIFIVMLEVILKTLLRSTVVFIFLLLAFGLSFYILLNLQDPFSSPLLSIIQTFSMMLGDINYRESFLEPYLRNELAHPVLSFAQLVSFTIFVPIVLMNLLIGLAVGDIAEVQKHASLKRIAMQVELHTSLEKKLPLWFLRKVDQKSTIVYPNKPRSGGMLFHIFCFLFCTGEIRQEIPNADKSLEMEILKQKYRLKDLTFLLEKQHELIKLIIQKMEIISETEDDDSHCSFQDRFKKEQMEQRNSRWNTVLRAVKAKTHHLEP
B1: the “Ultrasound-evoked action potentials in assayed neurons” value in data set [9] (current clamp) is listed as “all assayed hsTRPA1-expressing neurons showed ultrasound-evoked action potentials”. Besides, the “Lowest ultrasound pressure triggering action potentials” value in data set [9] (current clamp, 6.91 MHz) came out at 0.2 MPa. In addition, the “Current responses to ultrasound in voltage clamp” value in [9] (whole-cell, within a few milliseconds of ultrasound stimulation, 0.25 MPa range) is > 400 pA. In [10] (HEK cells, 100 ms ultrasound pulse at 3 MPa 6.91 MHz), the “Responsiveness to ultrasound stimulation among TRPA channels from different species (% of cells showing a response)” value is given as “the most responsive to ultrasound stimulation”. The “Response to ultrasound stimulation (cells activated, GCaMP6f)” value in data set [10] was “robust responses; also recorded: selectively activated by ultrasound stimulation in a pressure- and duration-dependent manner”. Also, the “Response to ultrasound stimulation (cells activated, GCaMP6f)” value in data set [10] (listed as human homolog) is “the best candidate”. The “Electrical properties (I-V curve) versus dTom controls” value in data set [11] is on record as “no significant disruptions in their electrical properties”. In data set [11] (cell-attached), the “Basal rate of activity before ultrasound versus dTom controls” value is “higher basal rates of activity”; the “Inward currents in response to ultrasound versus dTom controls” value is “significantly larger and more numerous”. Besides, the “Electrophysiological responses to ultrasound versus GFP control” value in [11] (patch clamp assay) is “Significant electrophysiological responses to ultrasound”. The “Ultrasound-triggered intracellular calcium in expressing neurons versus CRE control” value in [2] (E18 mouse primary cortical neurons, AAV infected, 100 ms, 2.5 MPa) is reported as “significant increase in intracellular calcium”. In data set [2] (setting [16]), the Response duration is 2 to 30 s and the “Response latency after stimulus onset (majority of neurons)” value was in the range of 500 to 900 ms. Also, the “Repeated ultrasound stimulation: cell health and calcium flux” value in data set [2] (repetitive 100 ms, 2.5 MPa ultrasound stimulation) was “without apparent deleterious effects on cell health or a substantial decrement in calcium flux”. The “Ability to learn the rotarod task versus GFP-expressing animals” value in [12] is reported as “comparable ability to learn the rotarod task”. For the same molecule, the “c-fos expression in the auditory cortex after ultrasound” value in data set [13] (hsTRPA1-expressing mice) is reported as “not detected”. Moreover, the “Number of c-fos positive cells in cortical motor neurons after ultrasound” value in data set [13] (hsTRPA1-expressing transgenic mice versus GFP) is listed as “significantly increased the number of c-fos positive cells”.

B2: Y785S: hsTRPA1 mutant with TM2 CRAC domain disrupted, Tyr785 replaced with Ser (protein, UniProt O75762 1-1119, looked up, variant Y785S)
Transient receptor potential …: B1 chain with Y785S
Turning to B2, the “GCaMP6f peak amplitude upon ultrasound stimulation, variant versus full-length hsTRPA1” value in data set [10] (transfected HEK cells) was “complete loss of ultrasound sensitivity”. In data set [14], the “GCaMP6f peak amplitude upon treatment with AITC, variant versus full-length hsTRPA1” value was “without affecting responsiveness to AITC”.

(Values after patent US20230263891A1, “SONOGENETIC STIMULATION OF CELLS EXPRESSING TRPA1” (Salk Institute for Biological Studies, priority 2020, published 2023).)
